To fix the notation:
B1: mms22N-3D (S126, T127, S131D) (domain or fragment, S. cerevisiae, UniProt Q06164 1-300, looked up)
chain: MDVDEPNPIVISDSEATDEEISIIYEPEFNENYLWAEENVQEASRSQKIVTERLSLDSTAGESCTPSVVTDTQVTTGLRWSLRKRKAIQKMPYSLERIKHRQLLEGYDISSFDSISNQLTLPKNADDVIHDNDILLTKRTGKPLDEQKDVTIDSIKPENSSVQSQRYDSDEEIPKKRHRTFKDLDQDIVFQSGDSTEDEQDLASTNLQNTQNDEVIFRGRVLNVRTGYRGVLPRVAWEKSLQKQQSSKVTKRKTQLLNHKGVAKRKMNRSAHIEDEEQNLLNDLIAPDDELDIEENAPPD

The data set “SEC” concerns the molecule itself. As to the kind of experiment: SEC. (In general: Size exclusion chromatography separates by hydrodynamic size, large species first.)
In data set [1] the target is B1. Put plainly: SEC.

As usually defined, the stoichiometry N is a count of units in the complex or per binding partner. Regarding B1, the “stoichiometry N” value in “SEC” worked out at 2.

B2: His6-Eco1 (enzyme, S. cerevisiae, UniProt P43605 1-281, looked up)
chain: MKARKSQRKAGSKPNLIQSKLQVNNGSKSNKIVKCDKCEMSYSSTSIEDRAIHEKYHTLQLHGRKWSPNWGSIVYTERNHSRTVHLSRSTGTITPLNSSPLKKSSPSITHQEEKIVYVRPDKSNGEVRAMTEIMTLVNNELNAPHDENVIWNSTTEEKGKAFVYIRNDRAVGIIIIENLYGGNGKTSSRGRWMVYDSRRLVQNVYPDFKIGISRIWVCRTARKLGIATKLIDVARENIVYGEVIPRYQVAWSQPTDSGGKLASKYNGIMHKSGKLLLPVYI
With B2, the binding result in data set [1] is recorded as “binds”.

The record behind these values is PMC10250241 (Nucleic Acids Research, 2023).
